Test results from doi:10.1101/2024.04.17.589973 (2024).
Residue numbers refer to the chain shown, from its start. Where no end group is shown, it is not given here.

B1: minibinder 6 with C-terminal Avi-His6 tag (designed binder)
chain: SAVELYLELLERSLRLAVEAGDPEDAERILRKARQIARVFNDPELEEIVERMEEILK-{Avi tag-His6}
modifications: also: biotin
B2: minibinder 7 with C-terminal Avi-His6 tag (designed binder)
chain: SAMERYVKVLLRTAELAREAGDPEDVRKALEKAELVARILHNEELKEEIREVEEEL-{Avi tag-His6}
modifications: also: biotin
B3: minibinder 8 with C-terminal Avi-His6 tag (designed binder)
chain: SLEEEAERVVEELVKEFNLSETQEIALRRYAEFAAKAGASEEVIEELLRRVAERLS-{Avi-His6}
modifications: also: biotin (for BLI), position not given here
B4: minibinder 7.8 (designed binder)
chain: SAMEYYVKELLRTAEYAREAGDPEYVRKALEQAELVARILHNEELKEEIREVEEEL
modifications: also: biotinylated (site not given here)
B5: minibinder 7.3 (designed binder)
chain: B4 chain with E9V
modifications: also: biotin
B6: minibinder 7.4 (designed binder)
chain: B4 chain with K8N, E9V, Y25D, Q32K
modifications: also: biotin
B7: minibinder 7.5 (designed binder)
chain: B4 chain with E9V, Y25D
modifications: also: biotin
B8: minibinder 7.11 (designed binder)
chain: B4 chain with Y25D
modifications: also: biotin
B9: minibinder 7.9 (designed binder)
chain: B4 chain with K28N
modifications: also: biotinylated (site not given here)
B10: minibinder 7.6 (designed binder)
chain: B4 chain with Y25D, Q32K
modifications: also: biotin
B11: minibinder 7.7 (designed binder)
chain: B4 chain with Q32K
modifications: also: biotin
B12: minibinder 7.10 (designed binder)
chain: B4 chain with D22E, K28N
modifications: also: biotin
B13: minibinder 7.2 (designed binder)
chain: B4 chain with E9V, Q32K
modifications: also: biotin
B14: minibinder 7.12 (designed binder)
chain: B4 chain with Y25D, K28N
modifications: also: biotin
B15: minibinder 8.5 (designed binder)
chain: SLEEEAERVVEELVKEFNLSRTQEIALRRYAEYAARATASEEVIEELLRRVAERLS
modifications: also: biotin (for BLI), position not given here
B16: minibinder 8.2 (designed binder)
chain: B15 chain with R21E, R36K, T38G
modifications: also: biotin (for BLI), position not given here
B17: minibinder 8.4 (designed binder)
chain: B15 chain with T38G
modifications: also: biotin (for BLI), position not given here
B18: minibinder 8.3 (designed binder)
chain: B15 chain with R36K, T38G
modifications: also: biotin (for BLI), position not given here
B19: minibinder 8.1 (designed binder)
chain: B15 chain with Y33F, R36K, T38G
modifications: also: biotinylated (site not given here)

target: T1, human TLR3 ectodomain (Wuxi Biologics, custom order) (human, UniProt O15455 24-704, biotin (for yeast display)); assay: BLI

B1 was tested. Which Kd did it give?
The Kd was 43 nM.

target: T1, human TLR3 ectodomain (Wuxi Biologics, …); assay: BLI; remark: another data set of the same source

For B2, which Kd is on record?
Its Kd is 440 nM.

Which Kd does the source give for B3 here?
Its Kd is 1200 nM.

target: T1, human TLR3 ectodomain (Wuxi Biologics, …); assay: BLI; remark: another data set of the same source

B4 was tested. Which Kd did it give?
Its Kd is 40 nM.

How did the Kd turn out when B5 was run?
Its Kd is 29 nM.

For B6, which Kd is on record?
The Kd was 34 nM.

How did the Kd turn out when B7 was run?
The Kd was 1.1 nM.

How did the Kd turn out when B8 was run?
The Kd was 45 nM.

B9 was tested. Which Kd did it give?
The Kd was 95 nM.

How did the Kd turn out when B10 was run?
The Kd was 24 nM.

For B11, which Kd is on record?
The Kd was 31 nM.

For B12, which Kd is on record?
The Kd was 190 nM.

B13 was tested. Which Kd did it give?
The Kd was 17 nM.

How did the Kd turn out when B14 was run?
The Kd was 108 nM.

target: T1, human TLR3 ectodomain (Wuxi Biologics, …); assay: BLI; remark: another data set of the same source

B15 was tested. Which Kd did it give?
The Kd was 170 nM.

With B16 as the binder, how does the Kd read?
The Kd was 600 nM.

With B17 as the binder, how does the Kd read?
Its Kd is 230 nM.

Which Kd does the source give for B18 here?
Its Kd is 230 nM.

B19 was tested. Which Kd did it give?
Its Kd is 690 nM.
